Key:
[1] = target: PEGylated insulin-like-growth-factor I (human) (UniProt P05019); experiment: sandwich ELISA: PEG-IGF-I at 0.06 ng/ml captured by biotinylated anti-PEG antibody on Streptavidin plate; dig-IGFBP-4 at 100 ng/ml; anti-digoxygenin-HRP/ABTS
[2] = target: PEGylated insulin-like-growth-factor I (human) (UniProt P05019); experiment: sandwich ELISA: PEG-IGF-I at 2.00 ng/ml captured by biotinylated anti-PEG antibody on Streptavidin plate; dig-IGFBP-4 at 100 ng/ml; anti-digoxygenin-HRP/ABTS
[3] = target: PEGylated insulin-like-growth-factor I (human) (UniProt P05019); experiment: sandwich ELISA: PEG-IGF-I at 0.25 ng/ml captured by biotinylated anti-PEG antibody on Streptavidin plate; dig-IGFBP-4 at 100 ng/ml; anti-digoxygenin-HRP/ABTS
[4] = target: PEGylated insulin-like-growth-factor I (human) (UniProt P05019); experiment: sandwich ELISA: PEG-IGF-I at 0.03 ng/ml captured by biotinylated anti-PEG antibody on Streptavidin plate; dig-IGFBP-4 at 100 ng/ml; anti-digoxygenin-HRP/ABTS
[5] = target: PEGylated insulin-like-growth-factor I (human) (UniProt P05019); experiment: sandwich ELISA: PEG-IGF-I at 0.13 ng/ml captured by biotinylated anti-PEG antibody on Streptavidin plate; dig-IGFBP-4 at 100 ng/ml; anti-digoxygenin-HRP/ABTS; mean of three
[6] = target: PEGylated insulin-like-growth-factor I (human) (UniProt P05019); experiment: sandwich ELISA: PEG-IGF-I at 0.06 ng/ml captured by biotinylated anti-PEG antibody on Streptavidin plate; dig-IGFBP-4 at 100 ng/ml; anti-digoxygenin-HRP/ABTS; mean of three
[7] = target: PEGylated insulin-like-growth-factor I (human) (UniProt P05019); experiment: sandwich ELISA: PEG-IGF-I at 1.00 ng/ml captured by biotinylated anti-PEG antibody on Streptavidin plate; dig-IGFBP-4 at 100 ng/ml; anti-digoxygenin-HRP/ABTS; mean of three
[8] = target: PEGylated insulin-like-growth-factor I (human) (UniProt P05019); experiment: sandwich ELISA: PEG-IGF-I at 0.13 ng/ml captured by biotinylated anti-PEG antibody on Streptavidin plate; dig-IGFBP-4 at 100 ng/ml; anti-digoxygenin-HRP/ABTS
[9] = target: PEGylated insulin-like-growth-factor I (human) (UniProt P05019); experiment: sandwich ELISA: PEG-IGF-I at 0.50 ng/ml captured by biotinylated anti-PEG antibody on Streptavidin plate; dig-IGFBP-4 at 100 ng/ml; anti-digoxygenin-HRP/ABTS
[10] = target: PEGylated insulin-like-growth-factor I (human) (UniProt P05019); experiment: sandwich ELISA: PEG-IGF-I at 2.00 ng/ml captured by biotinylated anti-PEG antibody on Streptavidin plate; dig-IGFBP-4 at 100 ng/ml; anti-digoxygenin-HRP/ABTS; mean of three
[11] = target: PEGylated insulin-like-growth-factor I (human) (UniProt P05019); experiment: sandwich ELISA: PEG-IGF-I at 1.00 ng/ml captured by biotinylated anti-PEG antibody on Streptavidin plate; dig-IGFBP-4 at 100 ng/ml; anti-digoxygenin-HRP/ABTS
[12] = target: PEGylated insulin-like-growth-factor I (human) (UniProt P05019); experiment: sandwich ELISA: PEG-IGF-I at 0.03 ng/ml captured by biotinylated anti-PEG antibody on Streptavidin plate; dig-IGFBP-4 at 100 ng/ml; anti-digoxygenin-HRP/ABTS; mean of three
[13] = target: PEGylated insulin-like-growth-factor I (human) (UniProt P05019); experiment: sandwich ELISA: PEG-IGF-I at 0.25 ng/ml captured by biotinylated anti-PEG antibody on Streptavidin plate; dig-IGFBP-4 at 100 ng/ml; anti-digoxygenin-HRP/ABTS; mean of three
[14] = target: PEGylated insulin-like-growth-factor I (human) (UniProt P05019); experiment: sandwich ELISA: PEG-IGF-I at 0.50 ng/ml captured by biotinylated anti-PEG antibody on Streptavidin plate; dig-IGFBP-4 at 100 ng/ml; anti-digoxygenin-HRP/ABTS; mean of three

OD (absorption signal), Sample No. 1 [1]: 0.25 OD
OD (absorption signal), Sample No. 2 [1]: 0.252 OD
OD (absorption signal), Sample No. 3 [1]: 0.243 OD
OD (absorption signal), Sample No. 1 [2]: 2.04 OD
OD (absorption signal), Sample No. 2 [2]: 2.06 OD
OD (absorption signal), Sample No. 3 [2]: 2 OD
OD (absorption signal), Sample No. 1 [3]: 0.757 OD
OD (absorption signal), Sample No. 2 [3]: 0.734 OD
OD (absorption signal), Sample No. 3 [3]: 0.766 OD
OD (absorption signal), Sample No. 1 [4]: 0.141 OD
OD (absorption signal), Sample No. 2 [4]: 0.159 OD
OD (absorption signal), Sample No. 3 [4]: 0.149 OD
OD (absorption signal), mean [5]: 0.434 OD
OD (absorption signal), mean [6]: 0.248 OD
OD (absorption signal), mean [7]: 1.69 OD
OD (absorption signal), Sample No. 1 [8]: 0.439 OD
OD (absorption signal), Sample No. 2 [8]: 0.428 OD
OD (absorption signal), Sample No. 3 [8]: 0.436 OD
OD (absorption signal), Sample No. 1 [9]: 1.21 OD
OD (absorption signal), Sample No. 2 [9]: 1.25 OD
OD (absorption signal), Sample No. 3 [9]: 1.22 OD
OD (absorption signal), mean [10]: 2.03 OD
OD (absorption signal), Sample No. 1 [11]: 1.66 OD
OD (absorption signal), Sample No. 2 [11]: 1.66 OD
OD (absorption signal), Sample No. 3 [11]: 1.73 OD
OD (absorption signal), mean [12]: 0.15 OD
OD (absorption signal), mean [13]: 0.752 OD
OD (absorption signal), mean [14]: 1.23 OD
B1: digoxygenylated insulin-like-growth-factor-binding-protein-4 (protein)
chain: DEAIHCPPCSEEKLARCRPPVGCEELVREPGCGCCATCALGLGMPCGVYTPRCGSGLRCYPPRGVEKPLHTLMHGQGVCMELAEIEAIQESLQPSDKDEGDHPNNSFSPCSAHDRRCLQKHFAKIRDRSTSGGKMKVNGAPREDARPVPQGSCQSELHRALERLAASQSRTHEDLYIIPIPNCDRNGNFHPKQCHPALDGQRGKCWCVDRKTGVKLPGGLEPKGELDCHQLADSFRE
modifications: digoxigenin coupled through digoxigenin 3-O-methylcarbonyl-epsilon-aminocaproic acid-N-hydroxysuccinimide ester (amine-reactive), molar ratio 1:5; positions not given
